# From patent US20240309103A1 (Regeneron, published 2024)
# B1: mAb22810 (antibody, human IgG4, V domains shown)
# VH: EVQLVESGGGLVKPGGSLRLSCVVSGFTFRIYTMNWVRQAPGKGLEWVASISSSSSFINYADSLKGRFTISRDNAQNSLYLQMNSLRAEDTAIYYCARAAGNDVLPGRMDVWGQGTSVTVSS
# VL: EIVLTQSPGTLSLSPGERATLSCRASQSVSSNYLAWYQQKPGQVPSLLIYGASSRATGIPDRFSGSGSGTDFTLTITRLEPEDFAVYYCQQYGISPWTFGQGTKVEIK
# B2: mAb22805 (antibody, human IgG4, V domains shown)
# VH: QVQLVESGGGVVQPGRSLRLSCAASGFTFSTYGMHWVRQAPGKGLEWVALIWNDGSNKYYADSVKGRFTISRDNSKNTLDLQMNSLRAEDTAVYYCARLNTRITGTTNLDYWGQGTLVTVSS
# VL: DIQMTQSPSSLSASVGDRVTVSCRASQSIANYLNWYQQKPGKAPNLLIYGAYTLQSGVPSRFRGSGSGTDFTLTISSLQPEDFATYYCQQTYSTPPITFGQGTRLEIK
# B3: mAb25502 (antibody, human IgG4, V domains shown)
# VH: QLQLQESGPGLVKPSETLSLTCTVSGGSISSSSYYWGWIRQPPGKGLEWIGSIYYSGSPYYIPSLKSRVTISVDTSKNQFSLKLSSVTAADTAMYYCARQGRGIARAGPFDYWGQGTLVTVSS
# VL: DIQMTQSPSSLSASVGDRVTITCRASQGISNYLAWYQEKPGKVPKLLIYAASTLQSGVPSRFSGSGSGTDFTLTITSLQSEDVATYYCQKYNSAPPWTFGQGTKVEIK
# How the values were obtained:
# [1] = biological target: T1, hNPR1-mFc:hANP or hNPR1-hFc:hANP complex (human, UniProt P01160 124-151); experiment: SPR, mAb captured, 37C
# T1 construct: also called human NPR1 complexed to ANP
# Description: (§1) Equilibrium dissociation constant (KD) for different NPR1 reagents binding to purified anti-NPR1 monoclonal antibodies (mAbs) were determined using a real-time surface plasmon resonance based Biacore 4000 biosensor. All binding studies were performed in 10 mM HEPES, 150 mM NaCl, 3 mM EDTA, and 0.05% v/v Surfactant Tween-20, pH 7.4 (HBS-ET) running buffer at 25° C. and 37° C. The Biacore CM5 sensor chip surface was first derivatized by amine coupling with either mouse anti-human Fc specific mAb (GE Healthcare, #BR100839) or goat anti-human Fcy specific polyclonal antibody (Jackson ImmunoResearch Laboratories, #BR-1008-39) to capture anti-NPR1 mAbs.
# [2] = biological target: T1, hNPR1-mFc:hANP or hNPR1-hFc:hANP complex; experiment: SPR, mAb captured, 25C
# Description: as §1
# [3] = biological target: T2, mfNPR1-mFc:hANP complex (monkey; human, UniProt P01160 124-151); experiment: SPR, mAb captured, 37C
# T2 construct: also called monkey NPR1 complexed to ANP
# Description: as §1
# [4] = biological target: T3, hNPR1-mFc:hBNP complex (human, UniProt P16860 103-134); experiment: SPR, mAb captured, 37C
# T3 construct: also called human NPR1 complexed to BNP
# Description: as §1
# [5] = biological target: T2, mfNPR1-mFc:hANP complex; experiment: SPR, mAb captured, 25C
# Description: as §1
# [6] = biological target: T3, hNPR1-mFc:hBNP complex; experiment: SPR, mAb captured, 25C
# Description: as §1
# [7] = biological target: T4, mfNPR1-mFc:hBNP complex (monkey; human, UniProt P16860 103-134); experiment: SPR, mAb captured, 25C
# T4 construct: also called monkey NPR1 complexed to BNP
# Description: as §1
# [8] = biological target: T5, mfNPR1-mFc (monkey); experiment: SPR, mAb captured, 25C
# T5 construct: also called dimeric monkey NPR1
# T5 chain: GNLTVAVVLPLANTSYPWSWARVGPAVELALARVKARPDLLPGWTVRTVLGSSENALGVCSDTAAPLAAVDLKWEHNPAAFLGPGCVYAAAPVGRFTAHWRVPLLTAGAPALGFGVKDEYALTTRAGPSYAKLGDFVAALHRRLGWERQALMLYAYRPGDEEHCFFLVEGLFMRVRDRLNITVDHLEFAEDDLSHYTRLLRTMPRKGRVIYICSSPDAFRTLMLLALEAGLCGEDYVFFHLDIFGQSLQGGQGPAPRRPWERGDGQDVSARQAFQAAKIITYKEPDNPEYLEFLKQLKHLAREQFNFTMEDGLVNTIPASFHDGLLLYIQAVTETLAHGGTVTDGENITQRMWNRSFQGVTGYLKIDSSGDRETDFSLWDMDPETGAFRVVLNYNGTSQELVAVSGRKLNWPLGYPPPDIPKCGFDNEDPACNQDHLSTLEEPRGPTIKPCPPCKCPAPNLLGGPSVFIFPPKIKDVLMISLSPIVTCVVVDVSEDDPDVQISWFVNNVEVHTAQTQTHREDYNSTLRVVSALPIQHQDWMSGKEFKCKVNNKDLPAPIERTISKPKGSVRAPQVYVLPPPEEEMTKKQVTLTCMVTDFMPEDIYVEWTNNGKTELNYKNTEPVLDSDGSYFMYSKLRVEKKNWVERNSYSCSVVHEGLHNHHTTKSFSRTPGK
# Description: as §1
Binder,100 nM Ag Bound (RU) [1],Kd [1],koff [1],kon [1],t½ [1],100 nM Ag Bound (RU) [2],Kd [2],koff [2],kon [2],t½ [2],100 nM Ag Bound (RU) [3],Kd [3],koff [3],kon [3],t½ [3],100 nM Ag Bound (RU) [4],Kd [4],koff [4],kon [4],t½ [4],other results
B1,26 RU,75.5 nM,0.00104 s⁻¹,13700 M⁻¹ s⁻¹,11 min,14 RU,41.4 nM,0.000344 s⁻¹,8310 M⁻¹ s⁻¹,34 min,,,,,,,,,,,
B2,113 RU,4.91 nM,0.000295 s⁻¹,60100 M⁻¹ s⁻¹,39.2 min,84 RU,3.28 nM,0.000141 s⁻¹,43100 M⁻¹ s⁻¹,81.7 min,153 RU,3.3 nM,0.000209 s⁻¹,63300 M⁻¹ s⁻¹,55.3 min,112 RU,6.02 nM,0.000313 s⁻¹,52000 M⁻¹ s⁻¹,36.9 min,100 nM Ag Bound (RU) [5]: 116 RU; Kd [5]: 1.96 nM; koff [5]: 9.51e-05 s⁻¹; kon [5]: 48400 M⁻¹ s⁻¹; t½ [5]: 121 min; 100 nM Ag Bound (RU) [6]: 84 RU; Kd [6]: 3.68 nM; koff [6]: 0.000152 s⁻¹; kon [6]: 41400 M⁻¹ s⁻¹; t½ [6]: 75.8 min; 100 nM Ag Bound (RU) [7]: 113 RU; Kd [7]: 2.12 nM; koff [7]: 9.6e-05 s⁻¹; kon [7]: 45300 M⁻¹ s⁻¹; t½ [7]: 120 min
B3,105 RU,6.49 nM,0.000467 s⁻¹,72000 M⁻¹ s⁻¹,24.7 min,81 RU,4.17 nM,0.000253 s⁻¹,60600 M⁻¹ s⁻¹,45.7 min,143 RU,5.76 nM,0.000524 s⁻¹,91000 M⁻¹ s⁻¹,22 min,102 RU,7.82 nM,0.000472 s⁻¹,60300 M⁻¹ s⁻¹,24.5 min,100 nM Ag Bound (RU) [8]: 22 RU; Kd [8]: 1.6 nM; koff [8]: 0.000141 s⁻¹; kon [8]: 88300 M⁻¹ s⁻¹; t½ [8]: 82 min; 100 nM Ag Bound (RU) [5]: 113 RU; Kd [5]: 3.56 nM; koff [5]: 0.000264 s⁻¹; kon [5]: 74000 M⁻¹ s⁻¹; t½ [5]: 43.8 min; 100 nM Ag Bound (RU) [6]: 78 RU; Kd [6]: 3.4 nM; koff [6]: 0.000236 s⁻¹; kon [6]: 69400 M⁻¹ s⁻¹; t½ [6]: 49 min; 100 nM Ag Bound (RU) [7]: 110 RU; Kd [7]: 4.08 nM; koff [7]: 0.000282 s⁻¹; kon [7]: 69000 M⁻¹ s⁻¹; t½ [7]: 41 min
